Experiments:
[1] = target: T1, hPR (Homo sapiens, UniProt P06401); assay: Transient transfection CAT reporter assay, hPRB with PRE2-TATA-CAT in HeLa cells; format: cell-based; details: HeLa cells, PRE2-TATA-CAT, 2×10^−8 M R5020, without SRC-1
T1 construct: expressed in transfected cells; host or cells: HeLa
T1 sequence (P06401 1-933): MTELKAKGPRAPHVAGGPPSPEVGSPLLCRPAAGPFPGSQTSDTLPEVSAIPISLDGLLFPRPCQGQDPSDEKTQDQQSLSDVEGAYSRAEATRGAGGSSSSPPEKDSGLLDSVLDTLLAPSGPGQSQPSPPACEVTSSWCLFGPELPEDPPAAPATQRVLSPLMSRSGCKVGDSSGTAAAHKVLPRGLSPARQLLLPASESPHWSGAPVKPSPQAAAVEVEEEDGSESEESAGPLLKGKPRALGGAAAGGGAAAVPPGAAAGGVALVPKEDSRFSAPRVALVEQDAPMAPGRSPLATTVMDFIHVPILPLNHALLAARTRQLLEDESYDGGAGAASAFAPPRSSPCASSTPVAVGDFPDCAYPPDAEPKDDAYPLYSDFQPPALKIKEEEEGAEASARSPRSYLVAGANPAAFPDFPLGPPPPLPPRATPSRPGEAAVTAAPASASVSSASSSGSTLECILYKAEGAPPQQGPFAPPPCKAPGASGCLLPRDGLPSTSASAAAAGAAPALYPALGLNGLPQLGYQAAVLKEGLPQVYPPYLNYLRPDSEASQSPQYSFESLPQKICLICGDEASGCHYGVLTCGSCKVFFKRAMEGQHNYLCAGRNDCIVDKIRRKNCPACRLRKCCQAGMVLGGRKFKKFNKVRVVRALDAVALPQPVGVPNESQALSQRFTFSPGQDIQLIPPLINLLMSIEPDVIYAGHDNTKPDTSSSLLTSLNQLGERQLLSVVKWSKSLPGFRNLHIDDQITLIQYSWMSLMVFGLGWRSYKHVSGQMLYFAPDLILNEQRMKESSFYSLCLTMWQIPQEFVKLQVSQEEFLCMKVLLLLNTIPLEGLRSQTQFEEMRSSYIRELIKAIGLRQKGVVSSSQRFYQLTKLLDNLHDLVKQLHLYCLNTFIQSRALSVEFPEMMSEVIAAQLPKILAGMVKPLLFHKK
Method: (§1) Lipofectin (GibcoBRL) was selected for transfection of Hela cells.
To further investigate the role of SRC-1 in receptor transactivation of target gene expression, transient transfection assays were carried out in mammalian cell lines. HeLa cells were cotransfected with mammalian expression vectors for full-length SRC-1 and hPRB together with a plasmid containing two copies of the progesterone-responsive DNA element (PRE) inserted in front of the TATA box of the E1b adenovirus, linked to the chloramphenicol acetyl transferase (CAT) reporter gene, PRE2-TATA-CAT.
Cells were harvested 42 h after transfection and the chloramphenicol acetyl transferase (CAT) activity determined using 8 μg of protein extract.

[2] = target: T2, GST-ER (Homo sapiens, UniProt P03372); assay: In vitro interaction with baculovirus expressed GST-ER; format: binding
T2 construct: GST; made in house
T2 sequence (P03372 1-595): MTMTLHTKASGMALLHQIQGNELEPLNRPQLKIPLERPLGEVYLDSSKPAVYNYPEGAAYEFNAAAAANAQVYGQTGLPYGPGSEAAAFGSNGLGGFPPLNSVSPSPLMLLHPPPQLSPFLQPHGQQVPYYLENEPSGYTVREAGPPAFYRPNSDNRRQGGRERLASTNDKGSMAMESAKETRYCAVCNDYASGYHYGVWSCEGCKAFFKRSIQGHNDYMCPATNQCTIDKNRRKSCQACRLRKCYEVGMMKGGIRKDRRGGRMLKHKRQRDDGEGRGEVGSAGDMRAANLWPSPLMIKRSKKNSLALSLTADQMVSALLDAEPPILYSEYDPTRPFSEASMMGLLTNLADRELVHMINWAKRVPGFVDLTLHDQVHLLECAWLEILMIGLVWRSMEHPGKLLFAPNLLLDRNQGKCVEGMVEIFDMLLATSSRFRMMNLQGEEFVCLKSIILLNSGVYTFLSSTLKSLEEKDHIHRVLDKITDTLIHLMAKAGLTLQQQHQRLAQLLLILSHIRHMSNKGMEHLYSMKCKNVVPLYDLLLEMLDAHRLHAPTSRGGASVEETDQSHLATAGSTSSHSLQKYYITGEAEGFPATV
Description: (§2) Thus, we investigated the effect of SRC-1 expression on the transcriptional activity of other intracellular receptors.

[3] = target: T3, GST-TR (Homo sapiens, UniProt P10828); assay: In vitro interaction with baculovirus expressed GST-TR; format: binding
T3 construct: GST; made in house
T3 sequence (P10828 1-461): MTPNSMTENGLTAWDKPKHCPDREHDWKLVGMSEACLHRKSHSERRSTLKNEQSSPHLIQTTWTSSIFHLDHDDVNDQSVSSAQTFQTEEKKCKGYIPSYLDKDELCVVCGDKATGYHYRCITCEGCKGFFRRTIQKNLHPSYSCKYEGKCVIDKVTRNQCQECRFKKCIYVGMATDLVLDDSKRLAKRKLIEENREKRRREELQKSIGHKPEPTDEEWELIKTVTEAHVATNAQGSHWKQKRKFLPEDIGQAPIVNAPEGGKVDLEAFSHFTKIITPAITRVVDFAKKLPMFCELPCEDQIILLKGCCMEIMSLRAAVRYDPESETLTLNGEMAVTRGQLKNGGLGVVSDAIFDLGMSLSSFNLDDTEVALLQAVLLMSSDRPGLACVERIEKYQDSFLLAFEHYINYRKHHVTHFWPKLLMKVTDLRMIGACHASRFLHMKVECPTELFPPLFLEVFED
Description: as §2

[4] = target: T1, hPR; assay: Dominant-negative CAT assay PR/PRE2-tk-CAT with SRC-1(0.8); format: cell-based; details: Lmtk- cells
Method: as §1
(§3) To further elucidate the mechanism of SRC-1 action, the effect of the N-terminal deletion mutant of SRC-1, SRC-1(0.8), on receptor transactivation was examined. The amino acid sequence from 865-1061, which contains the region that binds to the receptor, was cloned in frame to a mammalian expression vector that provided an exogenous AUG codon.
(§4) Lmtk^− cells were transfected with 5 μg of steroid receptors cDNAs expression vectors and their reporters, PR/PRE2-tk-CAT and TR§/DR4-tk-CAT, along with 10 μg of SRC-1(0.8) or empty expression vector and then treated with hormones (2×10^−8 M). The reporter CAT activity was determined using 60 μg of protein extract.

[5] = target: T4, TR (Homo sapiens, UniProt P10828); assay: Dominant-negative CAT assay TR/DR4-tk-CAT with SRC-1(0.8) in Lmtk- cells; format: cell-based; design: expressed in transfected cells; host or cells: Lmtk- (mouse fibroblast) cells; details: 10 μg SRC-1(0.8), hormone 2×10^−8 M
T4 sequence (P10828 1-461): T3 sequence (P10828 1-461)
Method: as §1, §3, §4

CCC(=O)[C@@]1(C)CC[C@H]2[C@@H]3CCC4=CC(=O)CCC4=C3CC[C@@]21C [R5020, reference compound]
induction of hPR activity (CAT reporter) [1]: ~5 fold

B1: SRC-1(0.8): N-terminal truncated form of SRC-1, amino acids 865-1061, containing the receptor-binding region; dominant-negative repressor (protein, UniProt Q15788 865-1061, looked up, fragment)
chain: LNRLPELELEAIDNQFGQPGTGDQIPWTNNTVTAINQSKSEDQCISSQLDELLCPPTTVEGRNDEKALLEQLVSFLSGKDETELAELDRALGIDKLVQGGGLDVLSERFPPQQATPPLIMEERPNLYSQPYSSPSPTANLPSPFQGMVRQKPSLGTMPVQVTPPRGAFSPGMGMQPRQTLNRPPAAPNQLRLQLQQR
interaction with GST-ER in vitro [2]: able to interact | interaction with GST-TR in vitro [3]: able to interact | effect on hormone induced transcriptional activity of hPR ([4]; 10 μg SRC-1(0.8), hormone 2×10^−8 M): efficiently reduced | effect on the hormone-free receptor ([4]; no hormone): No major effect | effect on ligand-induced transcriptional activity of TR [5]: inhibits
